{"source": "patent US20220073613A1", "about": "(XILIO DEVELOPMENT, published 2022)", "key": {"[1]": {"biological_target": "T1, muCTLA4hsIgG protein (Abcam) (murine, UniProt P09793 36-161, limits assumed)", "T1 construct": "Bought; also called murine CTLA4; not shown: human IgG part (hsIgG)", "assay": "low density antigen binding ELISA, 3 ng muCTLA4hsIgG per well"}, "[2]": {"biological_target": "T2, murine CTLA4-Fc (R&D Systems) (murine, UniProt P09793 36-162)", "T2 construct": "Bought; also called muCTLA4-hsIgG (R&D Systems); not shown: human IgG Fc part (hsIgG)", "assay": "ELISA, plate-coated murine CTLA4-Fc, anti-muKappa-HRP; ratio of EC50s"}, "[3]": {"biological_target": "T1, muCTLA4hsIgG protein (Abcam)", "assay": "low density antigen binding ELISA, muCTLA4hsIgG coated; average of three experiments"}}}
{"binder": "activatable masked anti-CTLA4 antibody (masked 9D9) (antibody, mouse IgG2a, kappa, Murine IgG2a; also called masked anti-CTLA4 antibody 2) light: ACNLIVEGHCGGSVPLSLYSGGGDIVMTQTTLSLPVSLGDQASISCRSSQSIVHSNGNTYLEWYLQKPGQSPKLLIYKVSNRFSGVPDRFSGSGSGTDFTLKISRVEAEDLGVYYCFQGSHVPYTFGGGTKLEIKRADAAPTVSIFPPSSEQLTSGGASVVCFLNNFYPKDINVKWKIDGSERQNGVLNSWTDQDSKDSTYSMSSTLTLTKDEYERHNSYTCEATHKTSTSPIVKSFNRNEC heavy: EAKLQESGPVLVKPGASVKMSCKASGYTFTDYYMNWVKQSHGKSLEWIGVINPYNGDTSYNQKFKGKATLTVDKSSSTAYMELNSLTSEDSAVYYCARYYGSWFAYWGQGTLITVSSAKTTAPSVYPLAPVCGDTTGSSVTLGCLVKGYFPEPVTLTWNSGSLSSGVHTFPAVLQSDLYTLSSSVTVTSSTWPSQSITCNVAHPASSTKVDKKIEPRGPTIKPCPPCKCPAPNLLGGPSVFIFPPKIKDVLMISLSPIVTCVVVDVSEDDPDVQISWFVNNVEVHTAQTQTHREDYNSTLRVVSALPIQHQDWMSGKEFKCKVNNKDLPAPIERTISKPKGSVRAPQVYVLPPPEEEMTKKQVTLTCMVTDFMPEDIYVEWTNNGKTELNYKNTEPVLDSDGSYFMYSKLRVEKKNWVERNSYSCSVVHEGLHNHHTTKSFSRTPGK", "values": [{"measurement": "fold lower binding than parental anti-CTLA4 antibody", "setting": "[1]", "result": "~156", "unit": "fold"}, {"measurement": "fold lower binding than parental anti-CTLA4 antibody (9D9)", "setting": "[2]", "result": 90, "unit": "fold"}, {"measurement": "EC50", "setting": "[3]", "result": 48.4, "unit": "nM"}]}
